Common to all, as to details: both partners purified
Experiment [1] has as its target T1, AtNF-YB2/AtNF-YC3 dimer (recombinant, renatured together) (Arabidopsis thaliana, UniProt Q9FGJ3 1-190; Q9ZVL3 1-217).
T1 construct: AtNF-YB2, Arabidopsis thaliana; as the chain of m23; AtNF-YC3, Arabidopsis thaliana; as the chain of m43; source: E. coli, each subunit purified from inclusion bodies, denatured and renatured when mixed together
T1 sequence (looked up) 1: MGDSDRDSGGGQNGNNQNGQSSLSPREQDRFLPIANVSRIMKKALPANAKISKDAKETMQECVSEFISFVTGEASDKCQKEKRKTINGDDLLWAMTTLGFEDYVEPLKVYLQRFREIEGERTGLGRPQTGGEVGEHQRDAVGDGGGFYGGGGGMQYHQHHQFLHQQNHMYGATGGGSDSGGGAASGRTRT
T1 sequence (looked up) 2: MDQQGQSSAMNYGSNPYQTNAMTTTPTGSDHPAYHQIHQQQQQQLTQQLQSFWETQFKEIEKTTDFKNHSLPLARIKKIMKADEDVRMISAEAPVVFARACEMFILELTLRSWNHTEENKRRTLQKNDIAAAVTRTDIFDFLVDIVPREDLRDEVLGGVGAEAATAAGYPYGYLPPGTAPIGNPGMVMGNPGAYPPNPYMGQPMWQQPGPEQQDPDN
Description: native gel or EMSA; Figure 5A: recombinant AtNF-YB/AtNF-YC dimers with recombinant AtNF-YA6 or recombinant mouse NF-YA; 32P-labelled CCAAT oligonucleotide; NF-Y buffer, 15 min 20°C; 4.5% polyacrylamide; the read-out is the trimer bound to DNA. In general terms: In EMSA bound probe runs differently from free probe, usually more slowly.

The target of experiment [2] is T2, His-tagged recombinant AtNF-YC7 (Arabidopsis thaliana, UniProt Q9FGP8 1-212).
T2 construct: AtNF-YC7, Arabidopsis thaliana; source: E. coli, purified (Nickel-agarose); found in inclusion bodies, denatured and renatured
T2 sequence (looked up): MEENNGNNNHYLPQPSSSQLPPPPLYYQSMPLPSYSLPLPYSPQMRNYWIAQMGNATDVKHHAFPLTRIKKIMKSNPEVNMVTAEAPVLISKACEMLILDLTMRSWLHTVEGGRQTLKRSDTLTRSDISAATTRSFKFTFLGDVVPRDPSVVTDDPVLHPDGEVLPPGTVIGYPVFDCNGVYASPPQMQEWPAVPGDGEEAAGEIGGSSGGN
Description: co-renaturation of denatured subunits; single His-tagged HFD subunits from E. coli inclusion bodies, denatured and renatured when mixed together.

The target of experiment [3] is T3, His-tagged recombinant AtNF-YC3 (Arabidopsis thaliana, UniProt Q9ZVL3 1-217).
T3 construct: AtNF-YC3, Arabidopsis thaliana; source: E. coli, purified (Nickel-agarose); found in inclusion bodies, denatured and renatured
T3 sequence (looked up): T1 sequence (looked up) 2
Described as above.

B1: recombinant AtNF-YA6 (His-tagged) (natural protein)
chain: not shown
notes: AtNF-YA6, Arabidopsis thaliana; 308 residues as printed; source: E. coli, purified (Nickel-agarose)
For B1, the binding result in experiment [1] is reported as “binds”.

B2: His-tagged recombinant AtNF-YB2 (natural protein, Arabidopsis thaliana, UniProt Q9FGJ3 1-190, looked up)
chain: T1 sequence (looked up) 1
notes: AtNF-YB2, Arabidopsis thaliana; also called His-AtNF-YB2; source: E. coli BL21, purified (Nickel-agarose); found in inclusion bodies, denatured and renatured
B2: the binding result in experiment [2] and in experiment [3] was “binds” each time.

B3: recombinant mouse NF-YA (347 residues) (natural protein)
chain: not shown
notes: mouse NF-YA; 347 residues as printed; source: recombinant
Turning to B3, the binding result in experiment [1] is given as “binds”.

The values are drawn from article PMC3422339, “Interactions and CCAAT-Binding of Arabidopsis thaliana NF-Y Subunits” (PLoS ONE, 2012).
